These results are taken from patent US20050201999A1.

The target of the assay is TcpJ, type 4 prepilin peptidase of Vibrio cholerae (wild-type) (Vibrio cholerae).

As for Aprotinin (from UniProt P00974), the % Cleavage of TcpA prepilin by TcpJ in the in vitro cleavage assay is 100%.
